The supplement of paper PMC9732359
± gives the uncertainty stated by the source.

Experiment: protein stability index of a GFP-peptide fusion (yeast GPS) (PSI 1-4); higher = more stable; sorted into four equal gates, so the index is relative within each strain
Summary of the method: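 Yeast carrying a pooled library were grown to mid-log phase in leucine-free medium. Each library plasmid expresses Cherry and has a tiled 17-residue yeast protein peptide fused downstream of GFP. Cells were sorted into four equal gates by GFP/Cherry ratio, and plasmids from each gate were PCR-amplified, Illumina-sequenced and assigned to strains by barcode. Summing, across gates, the read frequency times the gate number gave each peptide's protein stability index.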

Sequence | protein stability index (doa10∆) | protein stability index (pdr5∆) | protein stability index (san1∆) | protein stability index (ubr1∆)
SRRWRQRKNIQSLELMI [BRR2] | 1.39 ± 0.096 | 1.88 ± 0.073 | 2.15 ± 0.15 | 1.29 ± 0.057
SRTFDKYSKLVDNVTLE [SRP72] | 3.37 ± 0.12 | 3.36 ± 0.1 | 3.44 ± 0.094 | 3.3 ± 0.1
SRYILFEIIFPPTDTNV [POP5] | 1.54 ± 0.069 | 1.41 ± 0.052 | 1.53 ± 0.086 | 1.77 ± 0.047
SSFEENNDLESVSMLLQ [RRI2] | 2.98 ± 0.071 | 3.23 ± 0.063 | 3 ± 0.048 | 3.13 ± 0.039
SSFVRQELAKSIRSRRP [PRE1] | 2.08 ± 0.12 | 2.21 ± 0.074 | 1.78 ± 0.23 | 2.12 ± 0.065
SSKLYQMQQQQQAQAQA [GAL11] | 1.89 ± 0.071 | 2.09 ± 0.051 | 1.9 ± 0.082 | 1.82 ± 0.057
SSKTSQPKPLFSFGKSD [YOR098C/NUP1] | 2.16 ± 0.043 | 2.4 ± 0.027 | 2.19 ± 0.047 | 2.16 ± 0.035
SSLASQDVDFYKNLDRG [RRP6] | 1.31 ± 0.084 | 1.37 ± 0.067 |  | 1.64 ± 0.088
SSLVRRNSVKLLSKLLL [YCS4] | 1.68 ± 0.047 | 1.61 ± 0.04 | 1.64 ± 0.085 | 1.39 ± 0.027
SSQLNKLTDEQSSLDVA [SIR3] | 2.66 ± 0.088 | 2.93 ± 0.081 | 2.65 ± 0.09 | 2.97 ± 0.056
SSQVREHVKELLKYSNE [RPL1A] | 1.63 ± 0.077 | 2.23 ± 0.06 | 2.47 ± 0.085 | 2.13 ± 0.047
SSSDFRLHYYPKDPSNV [BRR2] | 3.21 ± 0.066 | 3.29 ± 0.06 | 3.47 ± 0.052 | 3.15 ± 0.042
SSTQDVILRKISMLVTQ [CSI1] | 1.62 ± 0.054 | 1.75 ± 0.054 | 1.91 ± 0.085 | 1.77 ± 0.041
SSVVSEPKKPSFTFASS [YOR098C/NUP1] | 3 ± 0.049 | 3.12 ± 0.038 | 3.01 ± 0.044 | 2.92 ± 0.034
SSVYRLKFAVQVDKVTK [RPL26A] | 1.67 ± 0.16 |  | 2.71 ± 0.24 | 2.78 ± 0.27
SSYEEFLERFDFYTRHH [ITC1] | 3.19 ± 0.13 | 3.1 ± 0.083 | 3.03 ± 0.073 | 3.1 ± 0.081
STEEIEYIELEYRDLYT [YMR129W/POM152] | 2.56 ± 0.11 | 3.04 ± 0.14 | 2.94 ± 0.13 | 2.72 ± 0.05
STFGFNNSAPNNTNNAN [YJL041W/NSP1] | 3.13 ± 0.042 | 3.18 ± 0.047 | 2.96 ± 0.039 | 3.19 ± 0.038
STGCVVGLSQPDAKIQV [YMR129W/POM152] | 2.29 ± 0.15 | 2.47 ± 0.21 | 2.47 ± 0.063 | 2.42 ± 0.091
STGLKNASDALKGRVVE [RPS1B] | 3.21 ± 0.15 | 3.04 ± 0.099 | 2.91 ± 0.12 | 2.67 ± 0.07
STISAREIQTAVRLILP [HTB1] | 2.13 ± 0.11 | 2.31 ± 0.12 | 2.52 ± 0.087 | 2.38 ± 0.074
STKELKFSDIIQGISKM [BRN1] | 3.16 ± 0.098 | 3.33 ± 0.084 | 3.18 ± 0.072 | 3.35 ± 0.085
STKVENSAIIQNLRKEL [YIL149C/MLP2] | 3.2 ± 0.084 | 2.88 ± 0.12 | 3.28 ± 0.071 | 3.3 ± 0.051
STLLCTDLESKSRMINF [SNU114] | 2.62 ± 0.05 | 2.96 ± 0.052 | 2.67 ± 0.044 | 2.79 ± 0.038
STMGTPTVHNSTAAAPI [PGD1] | 2.83 ± 0.095 | 3.07 ± 0.059 | 2.76 ± 0.06 | 2.93 ± 0.049
STSGDPSEFHCLQDALD [SSN2] | 3.07 ± 0.16 | 3.1 ± 0.12 | 3.08 ± 0.068 | 3.43 ± 0.11
